In IntAct's records for PubMed 31515488:

B1: Hypoxia-inducible factor 1-alpha inhibitor (Homo sapiens), Q9NWT6 (parent)
chain: MAATAAEAVASGSGEPREEAGALGPAWDESQLRSYSFPTRPIPRLSQSDPRAEELIENEEPVVLTDTNLVYPALKWDLEYLQENIGNGDFSVYSASTHKFLYYDEKKMANFQNFKPRSNREEMKFHEFVEKLQDIQQRGGEERLYLQQTLNDTVGRKIVMDFLGFNWNWINKQQGKRGWGQLTSNLLLIGMEGNVTPAHYDEQQNFFAQIKGYKRCILFPPDQFECLYPYPVHHPCDRQSQVDFDNPDYERFPNFQNVVGYETVVGPGDVLYIPMYWWHHIESLLNGGITITVNFWYKGAPTPKRIEYPLKAHQKVAIMRNIEKMLGEALGNPQEVGPLLNTMIKGRYN
partner: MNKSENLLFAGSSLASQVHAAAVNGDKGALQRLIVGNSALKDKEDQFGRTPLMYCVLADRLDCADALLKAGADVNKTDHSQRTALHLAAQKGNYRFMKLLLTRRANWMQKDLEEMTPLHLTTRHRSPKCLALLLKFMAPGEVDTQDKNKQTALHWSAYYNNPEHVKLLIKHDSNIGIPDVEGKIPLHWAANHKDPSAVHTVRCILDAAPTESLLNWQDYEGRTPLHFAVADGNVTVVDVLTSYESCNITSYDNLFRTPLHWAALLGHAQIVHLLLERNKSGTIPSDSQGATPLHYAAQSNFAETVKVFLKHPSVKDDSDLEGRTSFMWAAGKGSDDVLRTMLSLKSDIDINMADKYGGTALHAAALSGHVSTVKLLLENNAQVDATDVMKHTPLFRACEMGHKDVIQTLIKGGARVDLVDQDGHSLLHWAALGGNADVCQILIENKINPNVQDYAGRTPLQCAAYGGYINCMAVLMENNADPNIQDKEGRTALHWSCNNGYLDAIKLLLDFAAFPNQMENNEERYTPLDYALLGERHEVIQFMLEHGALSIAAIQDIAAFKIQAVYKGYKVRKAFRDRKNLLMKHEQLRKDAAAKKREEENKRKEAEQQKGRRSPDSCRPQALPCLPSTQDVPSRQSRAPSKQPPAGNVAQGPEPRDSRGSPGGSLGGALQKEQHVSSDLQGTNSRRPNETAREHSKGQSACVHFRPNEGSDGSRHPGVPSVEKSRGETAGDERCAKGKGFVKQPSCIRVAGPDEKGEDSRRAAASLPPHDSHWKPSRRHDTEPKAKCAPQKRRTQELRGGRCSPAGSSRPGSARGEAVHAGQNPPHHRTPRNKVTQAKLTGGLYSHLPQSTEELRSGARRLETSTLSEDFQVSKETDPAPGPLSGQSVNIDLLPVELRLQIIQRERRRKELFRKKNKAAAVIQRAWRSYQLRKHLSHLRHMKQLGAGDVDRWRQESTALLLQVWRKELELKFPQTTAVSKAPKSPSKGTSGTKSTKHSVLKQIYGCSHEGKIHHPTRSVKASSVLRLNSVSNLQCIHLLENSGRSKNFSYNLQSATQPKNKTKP
B2: KH domain-containing, RNA-binding, signal transduction-associated protein 2 (Homo sapiens), Q5VWX1 (parent)
chain: MEEEKYLPELMAEKDSLDPSFVHASRLLAEEIEKFQGSDGKKEDEEKKYLDVISNKNIKLSERVLIPVKQYPKFNFVGKLLGPRGNSLKRLQEETGAKMSILGKGSMRDKAKEEELRKSGEAKYAHLSDELHVLIEVFAPPGEAYSRMSHALEEIKKFLVPDYNDEIRQEQLRELSYLNGSEDSGRGRGIRGRGIRIAPTAPSRGRGGAIPPPPPPGRGVLTPRGSTVTRGALPVPPVARGVPTPRARGAPTVPGYRAPPPPAHEAYEEYGYDDGYGGEYDDQTYETYDNSYATQTQSVPEYYDYGHGVSEDAYDSYAPEEWATTRSSLKAPPQRSARGGYREHPYGRY
partner: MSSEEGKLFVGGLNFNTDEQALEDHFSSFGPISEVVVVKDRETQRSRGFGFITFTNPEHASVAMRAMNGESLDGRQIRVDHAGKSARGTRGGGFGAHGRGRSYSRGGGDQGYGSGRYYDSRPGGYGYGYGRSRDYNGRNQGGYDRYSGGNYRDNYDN
B3: G patch domain and ankyrin repeat-containing protein 1 (Homo sapiens), O95872 (parent)
chain: MSRPLLITFTPATDPSDLWKDGQQQPQPEKPESTLDGAAARAFYEALIGDESSAPDSQRSQTEPARERKRKKRRIMKAPAAEAVAEGASGRHGQGRSLEAEDKMTHRILRAAQEGDLPELRRLLEPHEAGGAGGNINARDAFWWTPLMCAARAGQGAAVSYLLGRGAAWVGVCELSGRDAAQLAEEAGFPEVARMVRESHGETRSPENRSPTPSLQYCENCDTHFQDSNHRTSTAHLLSLSQGPQPPNLPLGVPISSPGFKLLLRGGWEPGMGLGPRGEGRANPIPTVLKRDQEGLGYRSAPQPRVTHFPAWDTRAVAGRERPPRVATLSWREERRREEKDRAWERDLRTYMNLEF
partner: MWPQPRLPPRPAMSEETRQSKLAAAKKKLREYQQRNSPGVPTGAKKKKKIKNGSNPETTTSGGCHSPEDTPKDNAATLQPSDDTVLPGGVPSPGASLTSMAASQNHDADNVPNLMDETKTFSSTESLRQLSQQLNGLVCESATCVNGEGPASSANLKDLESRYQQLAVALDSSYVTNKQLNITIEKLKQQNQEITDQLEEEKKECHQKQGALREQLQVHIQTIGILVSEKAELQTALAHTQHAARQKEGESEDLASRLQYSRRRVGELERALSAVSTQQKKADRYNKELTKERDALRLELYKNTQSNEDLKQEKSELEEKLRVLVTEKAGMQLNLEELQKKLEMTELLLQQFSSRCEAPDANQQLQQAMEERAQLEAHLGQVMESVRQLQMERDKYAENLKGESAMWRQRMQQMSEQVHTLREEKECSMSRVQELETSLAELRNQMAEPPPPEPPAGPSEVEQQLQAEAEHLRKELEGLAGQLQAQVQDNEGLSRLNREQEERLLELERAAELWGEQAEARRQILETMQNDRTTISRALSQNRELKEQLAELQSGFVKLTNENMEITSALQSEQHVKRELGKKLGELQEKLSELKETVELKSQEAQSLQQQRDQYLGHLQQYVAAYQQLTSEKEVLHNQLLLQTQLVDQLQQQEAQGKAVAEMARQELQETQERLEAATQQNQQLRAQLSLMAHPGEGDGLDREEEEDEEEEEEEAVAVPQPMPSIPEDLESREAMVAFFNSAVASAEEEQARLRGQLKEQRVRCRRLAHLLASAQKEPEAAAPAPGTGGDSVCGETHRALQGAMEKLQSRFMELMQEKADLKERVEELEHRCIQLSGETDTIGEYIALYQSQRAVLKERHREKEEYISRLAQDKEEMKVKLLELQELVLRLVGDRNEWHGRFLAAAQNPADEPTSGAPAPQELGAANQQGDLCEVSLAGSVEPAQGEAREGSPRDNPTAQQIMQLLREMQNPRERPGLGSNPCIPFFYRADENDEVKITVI
B4: AKT-interacting protein (Homo sapiens), Q9H8T0 (parent)
chain: MNPFWSMSTSSVRKRSEGEEKTLTGDVKTSPPRTAPKKQLPSIPKNALPITKPTSPAPAAQSTNGTHASYGPFYLEYSLLAEFTLVVKQKLPGVYVQPSYRSALMWFGVIFIRHGLYQDGVFKFTVYIPDNYPDGDCPRLVFDIPVFHPLVDPTSGELDVKRAFAKWRRNHNHIWQVLMYARRVFYKIDTASPLNPEAAVLYEKDIQLFKSKVVDSVKVCTARLFDQPKIEDPYAISFSPWNPSVHDEAREKMLTQKKPEEQHNKSVHVAGLSWVKPGSVQPFSKEEKTVAT
partner: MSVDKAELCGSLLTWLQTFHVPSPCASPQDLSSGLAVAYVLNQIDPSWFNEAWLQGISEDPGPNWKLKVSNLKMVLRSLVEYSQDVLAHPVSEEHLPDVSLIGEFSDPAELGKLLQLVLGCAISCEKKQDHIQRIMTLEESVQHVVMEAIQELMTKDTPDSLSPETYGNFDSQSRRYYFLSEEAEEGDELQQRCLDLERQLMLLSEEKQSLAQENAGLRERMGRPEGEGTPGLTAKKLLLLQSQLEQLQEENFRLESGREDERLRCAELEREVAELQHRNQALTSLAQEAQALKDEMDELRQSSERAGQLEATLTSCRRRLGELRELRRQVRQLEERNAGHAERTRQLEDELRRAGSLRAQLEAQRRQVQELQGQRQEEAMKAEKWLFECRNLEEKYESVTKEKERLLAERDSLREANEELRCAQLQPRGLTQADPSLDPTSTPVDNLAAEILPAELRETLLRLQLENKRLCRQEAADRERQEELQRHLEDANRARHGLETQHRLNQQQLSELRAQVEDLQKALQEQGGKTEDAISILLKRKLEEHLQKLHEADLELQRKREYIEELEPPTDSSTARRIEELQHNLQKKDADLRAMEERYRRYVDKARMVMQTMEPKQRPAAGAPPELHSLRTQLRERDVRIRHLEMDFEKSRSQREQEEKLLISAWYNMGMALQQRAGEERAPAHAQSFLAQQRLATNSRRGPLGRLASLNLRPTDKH
B5: U6 snRNA-associated Sm-like protein LSm7 (Homo sapiens), Q9UK45 (parent)
chain: MADKEKKKKESILDLSKYIDKTIRVKFQGGREASGILKGFDPLLNLVLDGTIEYMRDPDDQYKLTEDTRQLGLVVCRGTSVVLICPQDGMEAIPNPFIQQQDA
partner: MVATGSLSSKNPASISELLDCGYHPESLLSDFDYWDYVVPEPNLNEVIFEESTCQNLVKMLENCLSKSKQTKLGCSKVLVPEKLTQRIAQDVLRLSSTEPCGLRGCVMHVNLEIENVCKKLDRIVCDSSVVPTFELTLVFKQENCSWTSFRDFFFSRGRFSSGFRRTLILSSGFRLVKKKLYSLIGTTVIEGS
B6: DNA replication complex GINS protein PSF2 (Homo sapiens), Q9Y248 (parent)
chain: MDAAEVEFLAEKELVTIIPNFSLDKIYLIGGDLGPFNPGLPVEVPLWLAINLKQRQKCRLLPPEWMDVEKLEKMRDHERKEETFTPMPSPYYMELTKLLLNHASDNIPKADEIRTLVKDMWDTRIAKLRVSADSFVRQQEAHAKLDNLTLMEINTSGTFLTQALNHMYKLRTNLQPLESTQSQDF
B7: Ubiquitin thioesterase OTUB2 (Homo sapiens), Q96DC9 (parent)
chain: MSETSFNLISEKCDILSILRDHPENRIYRRKIEELSKRFTAIRKTKGDGNCFYRALGYSYLESLLGKSREIFKFKERVLQTPNDLLAAGFEEHKFRNFFNAFYSVVELVEKDGSVSSLLKVFNDQSASDHIVQFLRLLTSAFIRNRADFFRHFIDEEMDIKDFCTHEVEPMATECDHIQITALSQALSIALQVEYVDEMDTALNHHVFPEAATPSVYLLYKTSHYNILYAADKH
partner: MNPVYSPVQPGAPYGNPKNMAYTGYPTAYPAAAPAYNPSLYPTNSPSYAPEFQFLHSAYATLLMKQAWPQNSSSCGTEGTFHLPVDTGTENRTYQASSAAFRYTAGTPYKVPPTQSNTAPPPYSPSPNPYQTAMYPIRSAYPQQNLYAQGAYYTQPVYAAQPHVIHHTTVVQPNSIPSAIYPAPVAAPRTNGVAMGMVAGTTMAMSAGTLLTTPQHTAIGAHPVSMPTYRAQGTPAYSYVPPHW

Variants of: B1
Conditions: with invs_human INVS

Variant | effect of a mutation on the interaction
P41A | with no effect

Variants of: B2
Conditions: with rbm3_human RBM3, P98179

Variant | effect of a mutation on the interaction
P333L | with no effect

Variants of: B3
Conditions: with goga2_human GOLGA2, Q08379

Variant | effect of a mutation on the interaction
R41L | with no effect

Variants of: B4
Conditions: with hook2_human HOOK2, Q96ED9

Variant | effect of a mutation on the interaction
R33Q | with no effect

Variants of: B5
Conditions: with ddt4l_human DDIT4L

Variant | effect of a mutation on the interaction
G78A | with no effect

Variants of: B6
Conditions: with sld5_human GINS4, Q9BRT9
Sequence of sld5_human GINS4, Q9BRT9 (Q9BRT9 whole entry): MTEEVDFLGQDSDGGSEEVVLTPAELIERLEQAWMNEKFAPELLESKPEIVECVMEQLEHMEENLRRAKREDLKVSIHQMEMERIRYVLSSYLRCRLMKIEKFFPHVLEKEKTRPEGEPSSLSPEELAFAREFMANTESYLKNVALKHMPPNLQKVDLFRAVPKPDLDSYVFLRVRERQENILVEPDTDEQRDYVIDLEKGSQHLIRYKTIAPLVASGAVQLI

Variant | effect of a mutation on the interaction
I26T | with no effect
D24G | with no effect
T172K | with no effect
L150S | with no effect

Variants of: B7
Conditions: with FAM168A

Variant | effect of a mutation on the interaction
V78I | with no effect
R146P | disrupting interaction strength
